How the values were obtained:
[1] = target: F protein on live RSV virus (strain not stated) (respiratory syncytial virus (RSV)); assay: cell-based or functional assay
[2] = target: T1, RSV G protein of group A strain (Ga protein) (respiratory syncytial virus (RSV), …, UniProt P03423 1-298); assay: Biacore, antibody on chip, recombinant Ga in flow
T1 construct: also called RSV-Ga; RSV-GA2 protein
T1 sequence: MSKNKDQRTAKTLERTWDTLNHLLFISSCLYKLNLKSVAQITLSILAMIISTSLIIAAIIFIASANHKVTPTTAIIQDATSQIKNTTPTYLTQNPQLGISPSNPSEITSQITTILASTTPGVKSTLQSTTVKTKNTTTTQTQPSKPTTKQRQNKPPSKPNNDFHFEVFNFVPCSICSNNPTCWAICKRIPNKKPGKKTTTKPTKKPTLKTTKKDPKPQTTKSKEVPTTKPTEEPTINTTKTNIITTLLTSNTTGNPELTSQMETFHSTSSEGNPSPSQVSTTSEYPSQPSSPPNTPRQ

[3] = target: T2, 12-mer Ga derived peptide HFEVFNFVPCSI; assay: array of overlapping 12-mer peptides, 1 ug/ml antibody, chemiluminescence
T2 construct: also called (169) HFEVFNFVPCSI (176)
T2 peptide: HFEVFNFVPCSI

In the case of Synagis® (palivizumab) (antibody), the IC50, plaque assay for neutralization of RSV on HEp2 cells with rabbit complement [1] is reported as 0.3 µg/mL and the affinity according to the plaque neutralization assay [1] is reported as 2 nM.

B1: 10C6 (antibody, V domains shown)
VH: QVQLVESGGGVVQPGRSLRLSCEASGFTFSGYAMHWVRQAPAKGLEWVAVISFDGSNNYYADSVKGRFTISRDNSKNMLFLQMNSLRAEDTAVYYCVRPDVIAVAGTALSNPFDLWGLGTMVTVSS
VL: EIVMTQSPATLSVSPGERALSCRASQSVRSNLVWYQQKPGQAPRLLIFGASTRATGIPARFSGSGSGTEFTLTISSLQSEDFALYFCQQNNNWPPTFGQGTRLEIK
B1 was tested, and the Kd [2] was 0.055 nM.

B2: murine monoclonal antibody 131-2G (antibody, V domains shown)
VH: EVQLQQSGPELVKPGTSVKISCKASGYSFTGFTMNWVKQSHGKNLEWFGLINPFNGNTGYNQKFKGKATLTVDKSSSTAFMELLSLTSEDSAVYYCARSGKSYDYEAWFTYWGQGTLVTVSA
VL: DIVMTQTTLSLPVSLGNQASISCRSSQTIVHTNGNTYLEWYLQKPGQSPKLLIYKVSNRFSGVPDRFSGSGSGTDFILNISRVEAEDLGVYYCFQGSHVPFTFGSGTKLEIKR
notes: Only variable regions are printed
B2: binds [3].

— patent US20090130120A1 (published 2009)
